Reference: paper PMC3604133

Target: Aβ40-S26C (synthetic human Aβ1-40 in which Ser26 was changed to cysteine) (human)
Experiment: SEC

stoichiometry N: 2
Substance: Aβ40-S26C (synthetic human Aβ1-40 in which Ser26 was changed to cysteine) (peptide)
